This note sets out measurements from FireProtDB (doi:10.1016/j.jmb.2010.11.028).

First the molecules themselves.
B1: Alpha-tocopherol transfer protein, P49638 (parent)
chain: MAEARSQPSAGPQLNALPDHSPLLQPGLAALRRRAREAGVPLAPLPLTDSFLLRFLRARDFDLDLAWRLLKNYYKWRAECPEISADLHPRSIIGLLKAGYHGVLRSRDPTGSKVLIYRIAHWDPKVFTAYDVFRVSLITSELIVQEVETQRNGIKAIFDLEGWQFSHAFQITPSVAKKIAAVLTDSFPLKVRGIHLINEPVIFHAVFSMIKPFLTEKIKERIHMHGNNYKQSLLQHFPDILPLEYGGEEFSMEDICQEWTNFIMKSEDYLSSISESIQ

The term Tm denotes the temperature at the midpoint of the melting transition.

Variants of B1 are the subject of this series. The following applies: Homo sapiens; pH 7.4; Thermal; Fluorescence; Tris 50mM; structure 1R5L; whole UniProt chain shown.
Turning to MAEARSQPSAGPQLNALPDHSPLLQPGLAALRRRAREAGVPLAPLPLTDSFLLRFLRARDFDLDLAWRLLKNYYKWRAECPEISADLHPRSIIGLLKAGYHGVLRSRDPTGSKVLIYRIAHWDPKVFTAYDVFRVSLITSELIVQEVETQRNGIKAIFDLEGWQFSHAAQITPSVAKKIAAVLTDSFPLKVRGIHLINEPVIFHAVFSMIKPFLTEKIKERIHMHGNNYKQSLLQHFPDILPLEYGGEEFSMEDICQEWTNFIMKSEDYLSSISESIQ [F169A], the Tm worked out at 75.3 °C.
For MAEARSQPSAGPQLNALPDHSPLLQPGLAALRRRAREAGVPLAPLPLTDSFLLRFLRARDFDLDLAWRLLKNYYKWRAECPEISADLHPRSIIGLLKAGYHGVLRSRDPTGSKVLIYRIAHWDPKVFTAYDVFRVSLITSELIVQEVETQRNGIKAIFDLEGWQFSHAFQITPSVAKKIAAVLTDSFPLKVRGIHLINEPVIFHAVFSMIKPFLTEKIKERIHMHGNNYKQSLLQHFPDILPLEYGGEEFSMEDICQEWTNFIDKSEDYLSSISESIQ [M264D] the value was 68.8 °C; for MAEARSQPSAGPQLNALPDHSPLLQPGLAALRRRAREAGVPLAPLPLTDSFLLRFLRARDFDLDLAWRLLKNYYKWRAECPEISADLHPRSIIGLLKAGYHGVLRSRDPTGSKVLIYRIAHWDPKVFTAYDVFRVSLITSELIVQEVETQRNGIKAIFDLEGWQDSHAFQITPSVAKKIAAVLTDSFPLKVRGIHLINEPVIFHAVFSMIKPFLTEKIKERIHMHGNNYKQSLLQHFPDILPLEYGGEEFSMEDICQEWTNFIMKSEDYLSSISESIQ [F165D], 82.4 °C; for MAEARSQPSAGPQLNALPDHSPLLQPGLAALRRRAREAGVPLAPLPLTDSFLLRFLRARDFDLDLAWRLLKNYYKWRAECPEISADLHPRSIIGLLKAGYHGVLRSRDPTGSKVLIYRIAHWDPKVFTAYDVFRVSLITSELIVQEVETQRNGIKAIFDLEGWQASHAFQITPSVAKKIAAVLTDSFPLKVRGIHLINEPVIFHAVFSMIKPFLTEKIKERIHMHGNNYKQSLLQHFPDILPLEYGGEEFSMEDICQEWTNFIMKSEDYLSSISESIQ [F165A], 82.4 °C.
The value for MAEARSQPSAGPQLNALPDHSPLLQPGLAALRRRAREAGVPLAPLPLTDSFLLRFLRARDFDLDLAWRLLKNYYKWRAECPEISADLHPRSIIGLLKAGYHGVLRSRDPTGSKVLIYRIAHWDPKVFTAYDVFRVSLITSELIVQEVETQRNGIKAIFDLEGWQFSHAFQITPSVAKKIAAVLTDSFPLKVRGIHLINEPVIFHAAFSMIKPFLTEKIKERIHMHGNNYKQSLLQHFPDILPLEYGGEEFSMEDICQEWTNFIMKSEDYLSSISESIQ [V206A] was 78.2 °C; that for MAEARSQPSAGPQLNALPDHSPLLQPGLAALRRRAREAGVPLAPLPLTDSFLLRFLRARDFDLDLAWRLLKNYYKWRAECPEISADLHPRSIIGLLKAGYHGVLRSRDPTGSKVLIYRIAHWDPKVFTAYDVFRVSLITSELIVQEVETQRNGIKAIFDLEGWQFSHAFQITPSVAKKIAAVLTDSFPLKVRGIHLINEPVIFHADFSMIKPFLTEKIKERIHMHGNNYKQSLLQHFPDILPLEYGGEEFSMEDICQEWTNFIMKSEDYLSSISESIQ [V206D] was 76 °C; that for MAEARSQPSAGPQLNALPDHSPLLQPGLAALRRRAREAGVPLAPLPLTDSFLLRFLRARDFDLDLAWRLLKNYYKWRAECPEISADLHPRSIIGLLKAGYHGVLRSRDPTGSKVLIYRIAHWDPKVFTAYDVFRVSLITSELIVQEVETQRNGIKAIFDLEGWQFSHAFQITPSVAKKIAAVLTDSFPLKVRGIHLINEPVAFHAVFSMIKPFLTEKIKERIHMHGNNYKQSLLQHFPDILPLEYGGEEFSMEDICQEWTNFIMKSEDYLSSISESIQ [I202A] was 74.9 °C.
Turning to MAEARSQPSAGPQLNALPDHSPLLQPGLAALRRRAREAGVPLAPLPLTDSFLLRFLRARDFDLDLAWRLLKNYYKWRAECPEISADLHPRSIIGLLKAGYHGVLRSRDPTGSKVLIYRIAHWDPKVFTAYDVFRVSLITSELIVQEVETQRNGIKAIFDLEGWQFSHAFQITPSVAKKIAAVLTDSFPLKVRGIHLINEPVDFHAVFSMIKPFLTEKIKERIHMHGNNYKQSLLQHFPDILPLEYGGEEFSMEDICQEWTNFIMKSEDYLSSISESIQ [I202D], the Tm was found to be 73.6 °C.
The value for MAEARSQPSAGPQLNALPDHSPLLQPGLAALRRRAREAGVPLAPLPLTDSFLLRFLRARDFDLDLAWRLLKNYYKWRAECPEISADLHPRSIIGLLKAGYHGVLRSRDPTGSKVLIYRIAHWDPKVFTAYDVFRVSLITSELIVQEVETQRNGIKAIFDLEGWQFSHAFQITPSVAKKIAAVLTDSFPLKVRGIHLINEPVIFHAVFSAIKPFLTEKIKERIHMHGNNYKQSLLQHFPDILPLEYGGEEFSMEDICQEWTNFIMKSEDYLSSISESIQ [M209A] was 82.8 °C.
For MAEARSQPSAGPQLNALPDHSPLLQPGLAALRRRAREAGVPLAPLPLTDSFLLRFLRARDFDLDLAWRLLKNYYKWRAECPEISADLHPRSIIGLLKAGYHGVLRSRDPTGSKVLIYRIAHWDPKVFTAYDVFRVSLITSELIVQEVETQRNGIKAIFDLEGWQFSHAFQITPSVAKKIAAVLTDSFPLKVRGIHLINEPVIFHAVFSDIKPFLTEKIKERIHMHGNNYKQSLLQHFPDILPLEYGGEEFSMEDICQEWTNFIMKSEDYLSSISESIQ [M209D] the value was 79.5 °C.
